B1: ID3166: microbiota protein, 121 amino acids, 14 kDa, SEQ ID NO: 2 (protein)
chain: AFLFTSTGVPKKAAEAAFFLYLNKGTKKGSRSCFFIYLDRGTKKGSRSCFFYLPRQGYQKGSRGCFFIYLDRGTKKGSRGCFFIYLDCEKRAGNVCIRKCRGRYLHKKTPRRYRNAEATCS
modifications: ID3166

Legend:
[1] = test system: monocytes; assay: IL-10 secretion from monocytes, NAT_29 sequence variants, co-stimulated with LPS (AlphaLISA); assay type: cell-based, human; conditions: 1 μM; LPS 100 ng/ml; 24 h; monocytes from six donors
Description: In order to investigate the impact of different sequence variations of NAT_29, monocytes from six donors were obtained as described in Example 3 and stimulated with 1 μM NAT_29 polypeptide (SEQ ID NO: 1) or a sequence variant thereof containing eight mutations (NAT_38; SEQ ID NO: 9), co-stimulated with 100 ng/ml LPS (NAT_38 comparison) from E. coli O111: B4 (InvivoGen, tlrl-eblps) and placed in humidified CO2 incubator at 5% CO2/37° C. for 24 h. IL-10 secretion was measured at 24 hours by AlphaLISA® on cell supernatants according to the supplier's protocol and read on an Envision plate reader (Perkin Elmer).
For comparison with NAT_29 (SEQ ID NO: 1), a polypeptide differing from the NAT_29 sequence by eight (8) amino acid positions was chosen (NAT_38; SEQ ID NO: 9). Namely, in SEQ ID NO: 9 • (i) 110 of SEQ ID NO: 1 is deleted, • (ii) D13 in SEQ ID NO: 1 is substituted with P (D13P), • (iii) a Q is added between R14 and G15 of SEQ ID NO: 1, • (iv) T16 in SEQ ID NO: 1 is substituted with Y (T16Y), • (v) K17 in SEQ ID NO: 1 is substituted with Q (K17Q), • (vi) S22 in SEQ ID NO: 1 is substituted with G (S22G), • (vii) an I is added between F25 and Y26 of SEQ ID NO: 1, and • (viii) P28 of SEQ ID NO: 1 is deleted.

[2] = test system: CD14 depleted human peripheral blood mononuclear cells (PBMCs); assay: IL-10 screening of microbiota protein library on CD14-depleted PBMCs (AlphaLISA); assay type: cell-based; conditions: second round of cell-free synthesis, 72 hours
Description: IL-10 screening of the microbiota protein library was performed on CD14 depleted human peripheral blood mononuclear cells (PBMCs). This cellular model was chosen to reduce the background due to cell wall components and other bacterial contaminants possibly present in the lysate of the Cell Free synthesis kit on the synthesised (but not purified) proteins.
PBMCs were isolated from buffy coats as follows: 80 ml PBS were added to 50 ml blood; 4 SepMate™-50 IVD tubes (Stemcell Technologies, Vancouver, Canada) were filled with 15 mL of Ficoll® (Ficoll® Paque Plus; Sigma-Aldrich, St. Louis, USA) per donor, then 30 ml of PBS-diluted blood were gently added. Samples were centrifuged for 20 min at 1200 g at room temperature and washed three times with PBS. To lyse the red blood cells, pellets were resuspended in Red Blood Cells Lysis buffer 1X (Miltenyi Biotec, Bergisch Gladbach, Germany) and incubated for 10 min at room temperature. Cells were then washed with MACS buffer and counted.
PBMC depletion was performed using the CD14 Microbeads kit (Miltenyi Biotec, Bergisch Gladbach, Germany) according to the supplier's protocol. […]
IL-10 secretion was measured by AlphaLISA® (IL10 (human) AlphaLISA Detection Kit; PerkinElmer, Waltham MA, USA) on the undiluted supernatants according to the supplier's protocol. Results were expressed as AlphaLISA® signal (Counts). […]

[3] = test system: human PBMCs; assay: Dose-response of purified microbiota proteins, IL-10 secretion from total PBMCs (AlphaLISA); assay type: cell-based; conditions: 24 hours
Description: Before testing, the proteins were purified. In view thereof, CD14 depletion of PBMCs was not required, since the background induced by the residual contaminants present in the purified proteins is very low. Therefore, the cellular assays of Example 2 to characterize the purified proteins were performed on total PBMCs.
The selected proteins, were tested at concentrations of 0.5, 0.25, 0.1 and 0.025 μM (final concentration) on PBMCs. Cells were seeded in 384 well plates at 72,000 cells/well in a final volume of […] and stimulated with either the purified proteins (10% vol/vol) or the relative controls (positive and negative) for 24 hours in a humidified 5% CO2 atmosphere at 37° C. Samples were tested in duplicate on at least two different PBMCs donors. All the dilutions were made in PBS.
Secretion of IL-10 was measured by AlphaLISA and compared to those of PBS (negative control) and PHA at 10 μg/ml (positive control), essentially as described above.

Molecule	IL-10 secretagogue activity compared with NAT_29 [1]	IL-10 secretion from human PBMCs [2]	IL-10 secretion from PBMCs compared with PHA (positive control) ([3]; 0.5, 0.25, 0.1 and 0.025 μM, PHA at 10 μg/ml)	IL-10 secretion from PBMCs at the lowest dose tested ([3]; lowest dose 0.025 μM)
KKGSRSCFFYLPRQGYQKGSRGCFFIYL (NAT_38)	IL-10 secretagogue activity was maintained			
B1		able to stimulate IL-10 secretion from human PBMCs	even more effective	very high effectivity even at the lowest dose tested
